This passage reports self-cleavage results from the RNAGym collection of RNA variant scans (doi:10.7554/elife.80360).

The chains are these.
B1: CPEB3 Ribozyme (parent)
chain: GGGGGCCACAGCAGAAGCGUUCACGUCGCGGCCCCUGUCAGAUUCUGGUGAAUCUGCGAAUUCUGCUGU

The variants in this data set derive from B1. Briefly: self-cleavage, relative activity (ratio to wild type); higher = more cleavage; co-transcriptional.
Regarding GGGGGCCACAGCAGAAGCGUUCACGUCGCGGCCCCUGUCAGAUCCUGGUGAAUCUGCGAAUUUUGCUGU [U44C C63U], the self-cleavage turned out to be 0.819.

Regarding GGGGGCCACAGCAGAAGCGUUCACGUCGCGGCCCCUGUCAGAUCCUGGUGAAUCUGCGAAUUGUGCUGU [U44C C63G], the self-cleavage came to 0.417.

For the variant GGGGGCCACAGCAGAAGCGUUCACGUCGCGGCCCCUGUCAGAUCAUGGUGAAUCUGCGAAUUCUGCUGU [U44C C45A], the self-cleavage stood at 0.998.

As for GGGGGCCACAGCAGAAGCGUUCACGUCGCGGCCCCUGUCAGAUCUUGGUGAAUCUGCGAAUUCUGCUGU [U44C C45U], the self-cleavage is 0.955.

As to GGGGGCCACAGCAGAAGCGUUCACGUCGCGGCCCCUGUCAGAUCCUGGUGAAUCUGCGAAUUCUGAUGU [U44C C66A], the self-cleavage was 0.502.

As for GGGGGCCACAGCAGAAGCGUUCACGUCGCGGCCCCUGUCAGAUCCUGGUGAAUCUGCGAAUUCUGUUGU [U44C C66U], the self-cleavage stood at 0.928.

Regarding GGGGGCCACAGCAGAAGCGUUCACGUCGCGGCCCCUGUCAGAUCCUGGUGAAUCUGCGAAUUCUGGUGU [U44C C66G], the self-cleavage is 0.464.

For GGGGGCCACAGCAGAAGCGUUCACGUCGCGGCCCCUGUCAGAUCCUGGUGAAUCUGCGAAUUCUGCUGU [U44C], the self-cleavage was found to be 0.957.

GGGGGCCACAGCAGAAGCGUUCACGUCGCGGCCCCUGUCAGAUCCUGGUCAAUCUGCGAAUUCUGCUGU [U44C G50C]: the self-cleavage stood at 0.948.

As to GGGGGCCACAGCAGAAGCGUUCACGUCGCGGCCCCUGUCAGAUCCUGGUUAAUCUGCGAAUUCUGCUGU [U44C G50U], the self-cleavage is 0.93.

Take GGGGGCCACAGCAGAAGCGUUCACGUCGCGGCCCCUGUCAGAUCCUGGUGAAUCUGCGAUUUCUGCUGU [U44C A60U]: the self-cleavage was found to be 0.441.

For the variant GGGGGCCACAGCAGAAGCGUUCACGUCGCGGCCCCUGUCAGAUCCUGGUGAAUCUGCGAGUUCUGCUGU [U44C A60G], the self-cleavage was 0.669.

As for GGGGGCCACAGCAGAAGCGUUCACGUCGCGGCCCCUGUCAGAUCCUGGUGAGUCUGCGAAUUCUGCUGU [U44C A52G], the self-cleavage was determined as 1.01.

For GGGGGCCACAGCAGAAGCGUUCACGUCGCGGCCCCUGUCAGAUCCUGGUGAUUCUGCGAAUUCUGCUGU [U44C A52U], the self-cleavage is 1.

GGGGGCCACAGCAGAAGCGUUCACGUCGCGGCCCCUGUCAGAUCCUGGUGACUCUGCGAAUUCUGCUGU [U44C A52C]: the self-cleavage was 0.95.

With GGGGGCCACAGCAGAAGCGUUCACGUCGCGGCCCCUGUCAGAUCCUGGUGAAUCUGAGAAUUCUGCUGU [U44C C57A], the self-cleavage worked out at 0.301.

Take GGGGGCCACAGCAGAAGCGUUCACGUCGCGGCCCCUGUCAGAUCCUGGUGAAUCUGGGAAUUCUGCUGU [U44C C57G]: the self-cleavage came to 0.362.

Take GGGGGCCACAGCAGAAGCGUUCACGUCGCGGCCCCUGUCAGAUCCUGGUGAAUCUGUGAAUUCUGCUGU [U44C C57U]: the self-cleavage is 0.419.

On to GGGGGCCACAGCAGAAGCGUUCACGUCGCGGCCCCUGUCAGAUCCUGGUGAAUUUGCGAAUUCUGCUGU [U44C C54U], for which the self-cleavage was 0.816.

As to GGGGGCCACAGCAGAAGCGUUCACGUCGCGGCCCCUGUCAGAUCCUGGUGAAUAUGCGAAUUCUGCUGU [U44C C54A], the self-cleavage came to 0.627.

In the case of GGGGGCCACAGCAGAAGCGUUCACGUCGCGGCCCCUGUCAGAUCCUGGUGAAUGUGCGAAUUCUGCUGU [U44C C54G], the self-cleavage worked out at 0.599.

As to GGGGGCCACAGCAGAAGCGUUCACGUCGCGGCCCCUGUCAGAUCCUGGUGAAUCUGCGUAUUCUGCUGU [U44C A59U], the self-cleavage amounted to 0.657.

Take GGGGGCCACAGCAGAAGCGUUCACGUCGCGGCCCCUGUCAGAUCCUGGUGAAUCUGCGCAUUCUGCUGU [U44C A59C]: the self-cleavage was determined as 0.577.

Consider GGGGGCCACAGCAGAAGCGUUCACGUCGCGGCCCCUGUCAGAUCCUGGUGAAUCUGCGGAUUCUGCUGU [U44C A59G], for which the self-cleavage turned out to be 0.958.

On to GGGGGCCACAGCAGAAGCGUUCACGUCGCGGCCCCUGUCAGAUCCUGAUGAAUCUGCGAAUUCUGCUGU [U44C G48A], for which the self-cleavage is 1.02.

For the variant GGGGGCCACAGCAGAAGCGUUCACGUCGCGGCCCCUGUCAGAUCCUGUUGAAUCUGCGAAUUCUGCUGU [U44C G48U], the self-cleavage was determined as 1.02.

As to GGGGGCCACAGCAGAAGCGUUCACGUCGCGGCCCCUGUCAGAUCCUGCUGAAUCUGCGAAUUCUGCUGU [U44C G48C], the self-cleavage came to 1.

With GGGGGCCACAGCAGAAGCGUUCACGUCGCGGCCCCUGUCAGAUCCUGGUGAAUCUCCGAAUUCUGCUGU [U44C G56C], the self-cleavage was determined as 0.351.

On to GGGGGCCACAGCAGAAGCGUUCACGUCGCGGCCCCUGUCAGAUCCUGGUGAAUCUUCGAAUUCUGCUGU [U44C G56U], for which the self-cleavage is 0.388.

Turning to GGGGGCCACAGCAGAAGCGUUCACGUCGCGGCCCCUGUCAGAUCCUGGUGAAUCUGCGAAUUCUCCUGU [U44C G65C], the self-cleavage came to 0.452.

As for GGGGGCCACAGCAGAAGCGUUCACGUCGCGGCCCCUGUCAGAUACUGGUGAAUCUGCGAAUUCUGCUGG [U44A U69G], the self-cleavage was found to be 1.02.

Turning to GGGGGCCACAGCAGAAGCGUUCACGUCGCGGCCCCUGUCAGAUCCUGGUGCAUCUGCGAAUUCUGCUGU [U44C A51C], the self-cleavage came out at 0.99.

On to GGGGGCCACAGCAGAAGCGUUCACGUCGCGGCCCCUGUCAGAUCCUGGUGGAUCUGCGAAUUCUGCUGU [U44C A51G], for which the self-cleavage was 0.693.

Consider GGGGGCCACAGCAGAAGCGUUCACGUCGCGGCCCCUGUCAGAUCCUGGUGUAUCUGCGAAUUCUGCUGU [U44C A51U], for which the self-cleavage was 0.919.

As for GGGGGCCACAGCAGAAGCGUUCACGUCGCGGCCCCUGUCAGAUCCUGGUGAAUCUGCUAAUUCUGCUGU [U44C G58U], the self-cleavage was 0.963.

As for GGGGGCCACAGCAGAAGCGUUCACGUCGCGGCCCCUGUCAGAUCCUGGUGAAUCUGCAAAUUCUGCUGU [U44C G58A], the self-cleavage was determined as 0.981.

Consider GGGGGCCACAGCAGAAGCGUUCACGUCGCGGCCCCUGUCAGAUCCUGGUGAAUCUGCCAAUUCUGCUGU [U44C G58C], for which the self-cleavage was 0.917.

Turning to GGGGGCCACAGCAGAAGCGUUCACGUCGCGGCCCCUGUCAGAUCCUUGUGAAUCUGCGAAUUCUGCUGU [U44C G47U], the self-cleavage stood at 1.01.

On to GGGGGCCACAGCAGAAGCGUUCACGUCGCGGCCCCUGUCAGAUCCUAGUGAAUCUGCGAAUUCUGCUGU [U44C G47A], for which the self-cleavage came to 0.979.
